Patent publication US20250114467A1 (SHANGHAI FUDAN ZHANGJIANG BIO PHARMACEUTICAL, published 2025)
Positions count from the first letter of the chain named.

T1: recombinant DLL3 protein (purchased from ACRO, DL3-H5255) (human, UniProt Q9NYJ7 27-479)
T1 construct: Bought; also called human DLL3 protein; hDLL3
T1 sequence (looked up): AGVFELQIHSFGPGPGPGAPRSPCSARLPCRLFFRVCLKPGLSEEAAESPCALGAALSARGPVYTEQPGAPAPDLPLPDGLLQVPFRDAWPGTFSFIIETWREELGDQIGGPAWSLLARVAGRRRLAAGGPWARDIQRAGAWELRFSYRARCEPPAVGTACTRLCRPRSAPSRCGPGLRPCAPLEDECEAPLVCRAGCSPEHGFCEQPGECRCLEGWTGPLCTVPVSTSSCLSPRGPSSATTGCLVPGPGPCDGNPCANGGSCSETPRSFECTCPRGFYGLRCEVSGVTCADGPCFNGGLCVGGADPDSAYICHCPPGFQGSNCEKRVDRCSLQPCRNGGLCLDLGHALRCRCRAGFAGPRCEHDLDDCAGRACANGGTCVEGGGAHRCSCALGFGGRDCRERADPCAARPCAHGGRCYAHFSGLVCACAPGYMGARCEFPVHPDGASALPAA

T2: mouse DLL3 on overexpressing cells (plasmid pCMV3-mDLL3, MG58052-UT) (mouse, UniProt O88516 33-592)
T2 construct: whole, on cells
T2 sequence (looked up): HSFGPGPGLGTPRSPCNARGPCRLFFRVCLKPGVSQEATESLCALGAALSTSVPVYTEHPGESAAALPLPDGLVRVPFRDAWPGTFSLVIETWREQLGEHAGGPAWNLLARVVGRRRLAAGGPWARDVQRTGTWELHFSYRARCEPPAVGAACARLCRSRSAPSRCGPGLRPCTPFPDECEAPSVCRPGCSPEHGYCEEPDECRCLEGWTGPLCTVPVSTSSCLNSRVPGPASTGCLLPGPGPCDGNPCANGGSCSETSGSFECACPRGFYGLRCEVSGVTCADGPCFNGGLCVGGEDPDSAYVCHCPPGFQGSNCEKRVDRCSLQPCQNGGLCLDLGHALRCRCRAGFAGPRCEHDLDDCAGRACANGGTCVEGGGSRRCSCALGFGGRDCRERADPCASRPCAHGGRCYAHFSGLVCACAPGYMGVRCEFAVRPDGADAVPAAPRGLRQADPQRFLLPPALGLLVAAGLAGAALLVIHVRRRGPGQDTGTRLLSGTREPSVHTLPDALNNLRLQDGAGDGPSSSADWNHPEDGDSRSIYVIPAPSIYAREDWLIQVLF

B1: ch23G2 (antibody, human IgG1, kappa, V domains shown)
VH: QVQLQQSGPELVRPGVSVKISCKGSGYTFTDYAIHWVKQSRAKSPEWIGIVSTDSGKTSFNQKFKGKATMTVDKSSTTAYMELVRLTSEDSAIYYCARNPYYDYDGYAMDYWGQGTSVTVSS
VL: DIQMTQSSSYLSVSLGGRVTIICKASDHINNWLAWYQQKPGNAPRLIISGATSLETGVPSRFSGSGSGKDYTLSITSLQTEDVATYYCQQYWSIPYTFGGGTKLEIKR
notes: Chimeric: murine variable regions on human IgG1 heavy and kappa light constant regions; also called chimeric antibody 23G2
B2: ch33F11 (antibody, human IgG1, kappa, V domains shown)
VH: EVQLQQSGPELVKPGASVKISCKTSGYTFTENTMHWVKQSHGESLEWIGGINPRNGVTSYNQKFKGKATLTVDKSSSTAYMELRSLTSEDSAVYYCTNTYYRDYFDYWGQGTTLTVSS
VL: NIVMTQSPKSMSMSVGERVTLSCKASENVGTYVSWYQQKPDQSPKLLIYGASNRYTGVPDRFTGSGSPTDFTLTISRMQAEDLAHYYCGQTYTYPLTFGAGTKLELKR
notes: Chimeric: murine variable regions on human IgG1 heavy and kappa light constant regions; also called chimeric antibody 33F11
B3: ch1A5 (antibody, human IgG1, kappa, V domains shown)
VH: B2 VH with N32S, T33A, E43K, R54N, V57G, T58I, N61S, T97G, N98S, T99S
VL: B2 VL with K9E, P68A, D70H, R77S, M78V, H85D, Y87H, T91S, T93S
notes: Chimeric: murine variable regions on human IgG1 heavy and kappa light constant regions, expressed in 293F cells; also called chimeric antibody 1A5
B4: ch15G2 (antibody, human IgG1, kappa, V domains shown)
VH: EVQLQQSGPELEKPGASVRISCKASGYSFTDYNMHWVKQSNGKSLEWIGNIDPYYGGTNYNQKFEGKATLTVDKSSSTAYMQLKSLTSEDSAVYYCARGGNNYGDYWGQGTTLTVSS
VL: DIQMTQSPASLAASVGETVTITCRASENIYYSLAWYQQKQGKSPQLLIFNANSLEDGVPSRFSGSGSGTQYSMKINSMQPEDTATYFCKQAYDVPWTFGGGTKLEIKR
notes: Chimeric: murine variable regions on human IgG1 heavy and kappa light constant regions; also called chimeric antibody 15G2
B5: ch32E8 (antibody, human IgG1, kappa, V domains shown)
VH: QVTLKESGPGILQPSQTLSLTCSFSGFSLSTSGMGVGWIRQPSGKGLEWLALIWWDDVKRYHPALKSRLTISKDTSSSQVFLKIASVDTADTATYYCARIAEVTGQVGLHYAMDYWGQGTSVTVSS
VL: QTVLTQSPAIMSASLGERVTMTCTASSSVNSSSLHWYQQKPGSSPKLWIYTTSNLASGVPARFSGSGSGTSYSLTISSMEAEDAATYYCHQFHRSPFTFGSGTKLEIKR
notes: Chimeric: murine variable regions on human IgG1 heavy and kappa light constant regions; also called chimeric antibody 32E8
B6: ch10B1 (antibody, human IgG1, kappa, V domains shown)
VH: DVKLVESGGGLVKPGGSLKLSCAASGFTFSNYTISWVRQTPEKRLEWVATFSSGGSYTYYSDSVKGRFTISRDNAKNTLYLQMSSLKSEDTAMYYCSRDRRSDGYYHLYAMDYWGQGTSVTVSS
VL: DIQMTQTTSSLSASLGDRVTISCRASQDISHYLNWYQQKPDGTVKLLIYYTSRLHSGVPSRFSGSGSGTAYSLTISNLEQEDIATYFCQQGYTLPLTFGAGTKLELKR
notes: Chimeric: murine variable regions on human IgG1 heavy and kappa light constant regions; also called chimeric antibody 10B1
B7: ch6A2 (antibody, human IgG1, kappa, V domains shown)
VH: EVQLQQSGPELVKPGASVKISCKASGYTFTDYNMNWVKQSQGKSLEWIGYIYPYNGGTGYNQKFKTKATLTVDNSSSTAYMEFRSLTSEDSAVYYCARSDPYYTMDYWGQGTSVTVSS
VL: IIVMTQTPKFLLVSAGDRVTISCKASQSVNNDVAWYQQKPGQSPKLLIYFTSNRFTGVPDRFTGSGYGTDFTFTISSVQAEDLAVYFCQQDHNSPYTFGGGTKLEIKR
notes: Chimeric: murine variable regions on human IgG1 heavy and kappa light constant regions; also called chimeric antibody 6A2
B8: ch13C2 (antibody, human IgG1, kappa, V domains shown)
VH: EVKLVESGGGLVKPGGSLKLSCAASGFAFSSYDMSWVRQTPEKRLEWVATISSGGSYTYYPDSVKGRFTISRDNGRNTLYLQMSSLRSEDTALYYCASPLLGLRFAYWGQGTLVTVSA
VL: QAVVTQESALTTSPGETVTLTCRSSTGAVTTINYANWVQEKPDHLFTGLIGGTNNRAPGVPARFSGSLIGDKAALTITGAQTEDEAIYFCALYYSNHWVFGGGTKLTVLR
notes: Chimeric: murine variable regions on human IgG1 heavy and kappa light constant regions; also called chimeric antibody 13C2
B9: ch19C7 (antibody, human IgG1, kappa, V domains shown)
VH: EVQLQQSGPELVRPGASVRMSCKASGYTFTYYVMHWVKQKPGLGLEWIGYINPYNDGTEYNEKFKGKATLTSDKSSSTAFMELSSLTSEDSAVYYCARWLLREYAMDYWGQGTSVTVSS
VL: DIQMTQSPASLSASVGETVTITCRASDNIHNYLAWYQQKQGKSPQLLVYNAKTLADGVPSRFSGSGSGTQYSLKINSLQPEDFGSYYCQHFWSTPWTFGGGTKLEIKR
notes: Chimeric: murine variable regions on human IgG1 heavy and kappa light constant regions; also called chimeric antibody 19C7
B10: ch26D9 (antibody, human IgG1, kappa, V domains shown)
VH: EVQLQQSGPELVKPGASVKMSCKASGYTFTTYVMHWVKQKPGQGLEWIGYINPYNDDTNYNEKFKGKATLTSDKSSSTAYMELSSLTSEDSAVYYCARWGLTGTGDYYAMDYWGQGTSVTVSS
VL: B9 VL with D27G, I29V, K42R, L46V, Q79L, S93T, K103T
notes: Chimeric: murine variable regions on human IgG1 heavy and kappa light constant regions; also called chimeric antibody 26D9

Target: T1, recombinant DLL3 protein (purchased …)
Assay: ELISA, plate-coated human DLL3 protein 1 µg/ml
Text: Six 6-week-old SPF grade female Balb/C mice (purchased from Shanghai Jihui Laboratory Animal Care Co., Ltd.) were selected and randomly divided into two groups, A and B. They were immunized with recombinant DLL3 protein (purchased from ACRO, DL3-H5255) at two-week intervals. Freund's complete adjuvant was used for the first immunization and Freund's incomplete adjuvant was used for subsequent immunizations. On days 35 and 49, blood samples were collected from the mice via orbital bleeding, and the immune serum titers of the mice were detected using conventional methods of ELISA and Flow Cytometry (FACS). ELISA detection method: DLL3 protein was diluted with PBS to a concentration of 1 μg/ml. 100 μl/well was added to a 96-well ELISA plate and incubated overnight at 4° C. The next day, the supernatant was discarded, and each well was blocked with 200 μl of 2% milk in PBS for 2 hours. After discarding the blocking solution, the wells were washed 3 times with 200 μl of PBST (0.1% Tween20). The serum to be detected was pre-diluted 100 times as the starting concentration, followed by a 3-fold gradient dilution across 11 concentrations, with 100 μl added to each well of the ELISA plate. After incubating at room temperature for 1 hour, the supernatant was discarded and the wells were washed 5 times with 200 μl of PBST (0.1% Tween20). Then, 100 μl of HRP-labeled goat anti-mouse secondary antibody (Jackson, 1:10000) was added and incubated at room temperature for 1 hour. After discarding the supernatant, the wells were washed 7 times with 200 μl of PBST (0.1% Tween20). 100 μl of TMB chromogen solution was added to each well for 10 minutes. The reaction was terminated with 2M HCl, and absorbance value at 450 nm was read with a Microplate Reader (purchased from Biotek, Elx808).
For the hybridoma clones with good binding and internalization activities identified in Example 5, the heavy chain variable region sequences were synthesized and cloned into the pFUSEss-CHIg-hG1 vector (purchased from InvivoGen, catalog number pfusess-hchgl) comprising the amino acid sequence of the human antibody IgG1 heavy chain constant region by homologous recombination.

Row | EC50 [ng/mL] | Binder
1 | 9.41 | B1
2 | 9.55 | B2
3 | 9.21 | B3
4 | 8.53 | B4
5 | 8.83 | B5
6 | 16.8 | B6
7 | 13.1 | B7
8 | 395 | B8
9 | 8.66 | B9
10 | 11.8 | B10

Target: T2, mouse DLL3 on overexpressing cells …
Assay: flow cytometry on cells overexpressing mouse DLL3, APC goat anti-human IgG, MFI [left panel]
Procedure: After washing with 80 μl of PBST (0.1% Tween20) for five times, 25 μl of HRP-labeled goat anti-human secondary antibody (Jackson, 1:10000) was added to each well and incubated at room temperature for 1 hour, discard the supernatant, and the wells were then washed seven times with 80 μl of PBST (0.1% Tween20). After adding 25 μl of TMB chromogen solution for 10 minutes, the reaction was terminated with 2M HCl, and the absorbance value at 450 nm was measured with a Microplate reader (purchased from Biotek, Elx808). […] The binding abilities of the chimeric antibodies to these cells were determined by flow cytometry to assess the cross-reactivity of the antibodies with different species. […] The chimeric antibodies, FDA027, and FDA031 were pre-diluted to 50 μg/ml, and further diluted in a 4-fold gradient across 8 concentration points, with 200 μL of the antibodies to be detected of different concentrations added to each well and incubated on ice for 30 minutes. […] After washing with PBS four times, 100 μL PBS was added to each well to resuspend the cells, which were then analyzed using CytoFLEX (Beckman).

Row | binding result | Binder
11 | no binding (tested: 50 µg/ml) | B4
12 | no binding (tested: 50 µg/ml) | B5
